Results on one molecule are retold here after patent publication US20070071744A1 (published 2007).

Ends that are not written are not given here.

Common to all, as to assay: PepSpot peptide array
One test has as its target T1, peptide 54 (human).
T1 peptide: Ac-ATGVFAKPSLSAQ
The method in brief: (§1)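 Peptides synthesized on cellulose membranes were blocked, then probed with a primary antibody followed by an HRP-labelled secondary, or with an HRP-labelled primary alone. After T-TBS/TBS washes, chemiluminescence was recorded as light units per peptide as single measurements. A secondary-only incubation served as the non-specific binding control.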

The target of another test is T2, peptide 86 (human).
T2 peptide: Ac-TAAHSGTYRCYSF
The method in brief:
as §1

For the next test, the target named is T3, peptide 90 (human).
T3 peptide: Ac-RCYSFSSRDPYLW
The method in brief:
as §1

The target in another test is T4, peptide 20 (human).
T4 peptide: Ac-PLEKPVTLRCQGP
The method in brief:
as §1

B1: monoclonal antibody hGP 5C4 (antibody, V domains shown)
VH: EVKLQESGGGLVQPGRSLKLSCTASGFTFSDYFMSWVRQAPTRGLEWVASISSGGASAYWRDSVKGRFTISRDNAKSALYLQMDSLRSEDTATYFCARGELDFDYWGQGVMVAVSS
VL: ADPNSTLLSASVGDRVTLNCTASQNVYKNLAWYQQKLGEAPRLLLYSANSQTGIPSRFSGSGSGPDFTLTISSLQPEDVASYFCQQYYSGNTFGAGTKLELKR
notes: Rat hybridoma antibody (Lou/C rats), heavy chain gamma 2a, light chain kappa; also called ab 5C4; anti-GPVI mAb 5C4
As to B1, the “LU (Light Units)” value was determined as 1210 LU with peptide 54, 58 LU with peptide 86, 65 LU in the test with peptide 90 and 175 LU with peptide 20. Besides, the “signal to noise ratio” value with peptide 54 was ~4 ratio.
